According to paper PMC10564941, “A morpheein equilibrium regulates catalysis in phosphoserine phosphatase SerB2 from Mycobacterium tuberculosis” (Communications Biology, 2023):

Legend:
[1] = test system: N[C@@H](COP(=O)(O)O)C(=O)O; assay: purified protein; settings: Mg2+ ([…] MgCl2 in assay) active site; uncompetitive substrate inhibition
[2] = biological target: T1, MtSerB2 (phosphoserine phosphatase SerB2) (Mycobacterium tuberculosis, UniProt O53289); assay: steady-state kinetics, malachite green phosphatase assay; SEC-UV/SAXS dimer-to-trimer shift; assay type: biochemical
T1 construct: full-length dimer fraction, His-tag cleaved
T1 sequence (O53289 whole entry): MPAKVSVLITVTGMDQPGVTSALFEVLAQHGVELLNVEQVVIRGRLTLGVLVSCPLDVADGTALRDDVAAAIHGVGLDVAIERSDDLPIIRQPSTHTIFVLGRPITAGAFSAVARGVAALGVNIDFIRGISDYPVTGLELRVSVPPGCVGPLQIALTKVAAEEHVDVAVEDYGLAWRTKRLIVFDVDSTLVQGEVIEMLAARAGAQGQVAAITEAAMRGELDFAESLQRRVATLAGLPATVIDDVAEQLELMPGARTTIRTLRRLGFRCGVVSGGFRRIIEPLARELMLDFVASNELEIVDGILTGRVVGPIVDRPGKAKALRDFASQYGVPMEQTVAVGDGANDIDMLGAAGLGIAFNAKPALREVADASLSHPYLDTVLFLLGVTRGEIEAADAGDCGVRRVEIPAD

Molecule	Km [1] [mM]	Ki [2] [µM]
MtSerB2 (phosphoserine phosphatase SerB2) (Mycobacterium tuberculosis H37Rv)	0.48 ± 0.17	–
N[C@@H](CO)C(=O)O [L-Ser]	–	22 ± 5.3
